Substrate: N[C@@H](CC(=O)O)C(=O)O
Assay: Kinetics of recombinant his-tagged, refolded maize asparagine synthetase AsnS4 (substrate titration, asparagine by HPLC)
Format: biochemical, Zea mays
Details: other: Zm AsnS4, 100 mM Hepes, pH 8.0, 10 mM MgCl2
Procedure: To assay asparagine synthetase activity, desalted protein extracts (10-50 μL) were added to wells containing 100 μL assay solution (100 mM Hepes, pH 8.0, 10 mM MgCl2, 2 mM aspartate, 5 mM DTT, 10 mM ATP, 1 mM amino(oxy)acetic acid (aspartate amino transferase inhibitor), 1 mM aspartic semialdehyde (asparaginase inhibitor). To start the reaction, glutamine (final concentration of 2 mM for standard assay) was added to the solution, which was then mixed. The assay mixture was then incubated for 1 to 2 hours. The reaction was then stopped by the addition of an equal volume of 20% (w/v) trichloroacetic acid. The mixture was then filtered to remove precipitate and asparagine was measured by HPLC. Sample size was increased from 0.5 μL to 2.5 μL for HPLC, excitation wavelength was reduced from 340 nm to 235 nm, and fluorimeter gain was increased from 10 to 13.
This example describes the cloning of the nucleotide sequence for AsnS1 (SEQ ID NO: 1), AsnS2 (SEQ ID NO: 3), AsnS3 (SEQ ID NO: 5) and AsnS4 (SEQ ID NO: 50) into E. coli expression vectors, as well as the expression, purification and kinetics of the recombinant forms of the four AsnS isoforms.
These vectors are expected to produce recombinant proteins with C-terminal histidine tags.
The E. coli expression vectors described in the previous paragraph were used to transform Rosetta DE5™ E. coli cells (Novagen). […]

B1: Zea mays asparagine synthetase Zm AsnS4 (SEQ ID NO: 51, encoded by SEQ ID NO: 50) (Zea mays) (protein)
chain: MCGILAVLGCSDCSQARRARILACSRRLKHRGPDWSGLYQHEGNFLAQQRLAIVSPLSGDQPLFNEDRTVVVVANGEIYNHKNVRKQFTGAHSFSTGSDCEVIIPLYEKYGENFVDMLDGVFAFVLYDTRDRTYVAARDAIGVNPLYIGWGSDGSVWMSSEMKALNEDCVRFEIFPPGHLYSSAGGGFRRWYTPHWFQEQVPRTPYQSLVLREAFEKAVIKRLMTDVPFGVLLSGGLDSSLVASVTKRHLVETDAAEKFGTELHSFVVGLEGSPDLKAAREVADYLGTTHHEFHFTVQDGIDAIEEVIYHDETYDVTTIRASTPMFLMARKIKSLGVKMVLSGEGSDELLGGYLYFHFAPNREELHRETCRKVKALHQYDCLRANKATSAWGLEVRVPFLDKEFVDVAMGMDPEWKMYDKNLGRIEKWVLRKAFDDEEHPYLPEHILYRQKEQFSDGVGYNWIDGLKSFTEQQVTDEMMNSAAQMFPYNTPVNKEAYYYRMIFERLFPQDSARETVPWGPSIACSTPAAIEWVEQWKASNDPSGRFISSHDSAATDRTGDKLAVANGGGHGAANGTVNGNDVAVAIAV
notes: 588 aa
  Km: 930 µM

— patent US8357833B2, “Corn plants and seed enhanced for asparagine and protein” (priority 2007, dated 2013)
